Substrate: O=P(O)(O)O
Test: cells, lysate or membranes
Settings: labelled compound, whole yeast cells, 5 min, 30 °C, glucose-energized, Pi 50-2000 µM, proton symport, pH of Km assay not stated

B1: GmPT2 (Glycine max) (protein)
chain: MAGGQLGVLNALDVAKTQWYHFTAIVIAGMGFFTDAYDLFCISLVTKLLGRLYYTDITNPKPGVLPPNVQAAVTGVALCGTLAGQLFFGWLGDKLGRKRVYGLTLMLMVVCSVASGLSFGDTPKGVMATLCFFRFWLGFGIGGDYPLSATIMSEYANKKTRGAFIAAVFAMQGFGILAGGIVALIVSSAYDHKYDLPSYKDNPAGSKVDSLDYVWRIILMFGAVPAGLTYYWRMKMPETARYTALVAKNAKQAASDMSKVLQVEVEAEEDKLQHMVESEHQKYGLFSKEFAKRHGLHLVGTTVTWFLLDIAFYSQNLFQKDIFSAIGWIPPAQDMNAIHEVYRIARAQTLIALCSTVPGYWFTVAFIDIMGRFAIQLMGFFFMTVFMFALAIPYNHWKNHNNIGFVVMYSFTFFFSNFGPNATTFVVPAEIFPARLRSTCHGISAAAGKAGAIVGAFGFLYAAQSTNPDKVDHGYPTGIGVKNSLIVLGVINFFGMVFTLLVPESKGKSLEELSGENEDDGAEAIEMAGSARTVPV
- Km: 6.63 mM

B2: GmPT1 (Glycine max) (protein)
chain: MAGGQLGVLNALDVAKTQWYHFTAIVIAGMGFFTDAYDLFCISLVTKLLGRLYYTDIRNPKPGVLPPNVQAAVTGVALCGTLAGQLFFGWLGDKLGRKRVYGLTLMLMVLCSIASGLSFGDTPKGVMATLCFFRFWLDFGIGGDYPLSATIMSEYANKKTRGSFIAAVFAMQGFGIMAGGIVALIVSSAYDHKYDLPSYKDNPAGSKVDSLDYVWRIILMFGAVPAALTYYWRMKMPETARYTALVAKNAKQAASDMSKVLQVEVEAEEDKLQHMVESENQKYGLFSKEFAKRHGLHLVGTTVTWFLLDIAFYSQNLFQKDIFTAIGWIPPAQDMNAIHEVYRIARAQTLIALCSTVPGYWFTVAFIDIIGRFAIQLMGFFFMTVFMFALAIPYNHWKNHNNIGFVVMYSFTFFFSNFGPNATTFVVPAEIFPARLRSTCHGISAAAGKAGAIVGAFGFLYAAQSTNPNKVDHGYPTGIGVKNSLIVLGVINFFGMVFTLLVPESKGKSLEELSGENEDDGAEAIEMAGSARTVPV
- Km: 6.65 mM

Reference: paper PMC3115949
